According to US20190233498A1 (H LUNDBECK A S, published 2019):

T1: human PACAP38 (human, not fully specified; C-terminal lysine is amidated; N-terminal or C-terminal biotin in the HTRF and PC-12 cell binding assays)
T1 peptide: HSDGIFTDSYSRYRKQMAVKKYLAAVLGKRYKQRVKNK

T2: human PACAP27 (human, C-terminal leucine is amidated; 125I-labelled in Example 10)
T2 peptide: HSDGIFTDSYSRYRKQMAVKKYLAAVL

T3: human VIP (human)
T3 construct: also called Vasoactive Intestinal Peptide
T3 peptide: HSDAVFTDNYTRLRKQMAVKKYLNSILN

B1: anti-PACAP antibody Ab9.H (antibody, human IgG1, kappa, N297A, V domains shown)
VH: EVQLVESGGGLVQPGGSLRLSCAASGFTVSRDYWICWVRQAPGKGLEWIGCISAGGGSTDYANWVNGRFTISRDISKNTGYLQMNSLRAEDTAVYYCAGNLEIWGQGTLVTVSS
VL: DIQMTQSPSTLSASVGDRVTITCQSSPSIYSGAFLSWYQQKPGKAPKFLIYEASKLASGVPSRFSGSGSGTEFTLTISSLQPDDFATYYCLGFYDCSSVDCHAFGGGTKVEIKR
notes: humanized form of Ab9, full length
B2: anti-PACAP antibody Ab5.H (antibody, human IgG1, kappa, N297A, V domains shown)
VH: EVQLVESGGGLVQPGGSLRLSCAASGFSLSSYAMIWVRQAPGKGLEWVGIIYDNGDTYYASSAKGRFTISRDNSKNTVYLQMNSLRAEDTAVYFCAREPGSTTQNDLWGQGTLVTVSS
VL: DVQMTQSPSTLSASVGDRVTITCQASENIYNSLLWYQQKPGKAPKLLIYRASTLASGVPSRFSGSGSGTEFTLTISSLQPDDFATYYCQNYYNIWTNGAAFGGGTKVEIKR
notes: humanized form of Ab5, full length
B3: anti-PACAP antibody Ab22 (antibody, human IgG1, kappa, N297A, V domains shown)
VH: QEQLVESGGGLVQPEGSLTLTCTASGFDFSSNAMCWVRQAPGKGLEWIGSIYNADGKNYYAIWAKGRFTISRTSSTTVTLQMTSLTAADTATYFCARDFDLWGQGTLVTVSS
VL: AAVLTQTPSPVSAAVGGTVTINCQSSQSVYDNDWLAWFQQKPGQPPKLLIYLTSTLASGVPSRFSGSGSGTQFTLTISGVQCDDAATYYCLGGYDEDGDTHVFGGGTEVVVKR
notes: full-length rabbit/human chimeric antibody; PACAP38 specific
B4: anti-PACAP antibody Ab23 (antibody, human IgG1, kappa, N297A, V domains shown)
VH: QSVEESGGRLVTPGTPLTLTCTVSGFSLNNYAMSWVRQAPGKGLEWIGIMGVNDITYYASWAKGRFTISKTSTTVDLKMTSLTTEDTATYFCTREIRDDGDSSDKLWGPGTLVTVSS
VL: AIKMTQTPSSVSAAVGGTVTINCQASEDIYTNLAWYQQKPGQPPNLLIYDASDLASGVPSRFSGSGDGTQFTLTISAVQCEDAATYYCQGVAWSSNTGYGSAFGGGTEVVVKR
notes: as for B3

Biological target: T1, human PACAP38
Experiment: cell-based or functional assay

IC50, 5 nM PACAP38-induced human VPAC1-R mediated cAMP increase [µM]	Binder
0.00246	B1
0.00277	B2
0.0013	B3
0.00267	B4

Biological target: T2, human PACAP27
Experiment: SPR, Ab immobilised

Kd [µM]	koff [s⁻¹]	kon [M⁻¹ s⁻¹]	Binder
0.00012	7.7e-05	620000	B1
0.00048	0.00013	270000	B2
–	0.1	–	B3
0.035	0.031	890000	B4

Biological target: T1, human PACAP38
Experiment: SPR, Ab immobilised
Method in brief: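 SPR with antibody amine-coupled to the chip and human PACAP38 flowed as analyte at 1.23–100 nM in PBST containing 0.25 M arginine, 0.2 mg/ml BSA and 0.005% azide, pH 7. Association lasted 2–4 min and dissociation 3–120 min. Kinetics were fitted to a 1:1 Langmuir model.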

Kd [nM]	koff [s⁻¹]	kon [M⁻¹ s⁻¹]	Binder
0.061	6.1e-05	1e+06	B1
0.031	1.7e-05	550000	B2
≤ 0.027	≤ 1e-05	370000	B3
0.071	3.6e-05	510000	B4

Biological target: T3, human VIP
Experiment: SPR, Ab immobilised

Kd [µM]	koff [s⁻¹]	kon [M⁻¹ s⁻¹]	Binder
1.5	0.14	93000	B1
100000	0.1	–	B2
0.69	0.18	270000	B3
0.73	0.32	430000	B4

Biological target: T1, human PACAP38
Experiment: inhibition of 30 nM biotin-PACAP38 binding to PC-12 cells, TRF
Procedure: To identify antibodies that block PACAP38 binding to PAC1-R-expressing cells, adherent PC-12 cells (ATCC, Manassas, Va.) expressing PAC1-R were used in a Europium-based PAC1-R expressing cells binding assay.
Antibody solutions were incubated with N-terminal biotinylated PACAP38 at 10× the final concentration (100 nM or 30 nM) for 1 hr, then added to PC-12 cells that were plated 24 hrs. prior in black clear bottom 96 well plates (COSTAR™, Corning Incorporated, Corning, N.Y.) and further incubated for 1 hr at room temperature. After three washes, the cells were incubated with 20 μl Europium-labeled streptavidin (PerkinElmer, Waltham, Mass.) for 1 hr at room temperature. Cells were washed three times, then 20 μl DELFIA® Enhancement solution (PerkinElmer, Waltham, Mass.) was added to each well and incubated for 15 minutes with gentle shaking. Plates were read (Time Resolved Fluorescence (“TRF”)) on SPECTRAMAX® (Molecular Devices, Sunnyvale, Calif.) plate reader.
FIGS. 14A-14BB are representative of the inhibition curves obtained by this method (results are shown for Ab1, Ab2, Ab3, Ab4, Ab5, Ab6, Ab7, Ab8, Ab9, Ab10, Ab11, Ab12, Ab13, Ab14, Ab15, Ab16, Ab17, Ab18, Ab19, Ab1.H, Ab10.H, Ab22, Ab23, Ab3.H, Ab4.H, Ab5.H, Ab9.H, and Ab12.H, respectively) wherein the PAC1-R expressing cells were PC-12 cells.

IC50 [µM]	Binder
0.0225	B1
0.0349	B2
0.0138	B3
0.0149	B4

Biological target: T1, human PACAP38
Experiment: HTRF binding, biotin-PACAP38
Method in brief: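 Antibody dilution series (top 100 nM final) incubated with N- or C-terminal biotinylated PACAP38 (35 nM final), alone or with 350 nM PACAP27 or VIP. HTRF with Eu³⁺ anti-human Fc donor and d2-streptavidin acceptor, 1 h at room temperature, read at 620/665 nm; EC₅₀ from binding curves.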

EC50 [µM]	Binder
0.00057	B3
0.00056	B4

Biological target: T2, human PACAP27
Experiment: cell-based or functional assay

IC50, 0.1 nM PACAP27-induced PAC1-R mediated cAMP increase [µM]	Binder
0.00027	B1
0.000217	B2

Biological target: T1, human PACAP38
Experiment: cell-based or functional assay
Remark: another data set of the same source

IC50, 0.1 nM PACAP38-induced PAC1-R mediated cAMP increase [µM]	Binder
0.000278	B1
0.000378	B2
0.000101	B3
0.000115	B4

Biological target: T1, human PACAP38
Experiment: cell-based or functional assay
Remark: another data set of the same source

IC50, 1 nM PACAP38-induced human VPAC2-R mediated cAMP increase [µM]	Binder
0.00265	B1
0.00747	B2
0.000515	B3
0.00179	B4
